Legend:
[1] = tested on: GFP-VCF1 WT interactome, U2OS cells; assay: GFP IP mass spectrometry of VCF1-interacting proteins, partially denaturing RIPA buffer (+DOX/-DOX); type: binding, human
Experimental: (§1) U2OS (catalog no. HTB-96) cells were obtained from ATCC. HEK293-EBNA1-6E cells were a kind gift from Yves Durocher (National Research Council Canada, Montreal, Canada). All mammalian cell lines were cultured under standard conditions at 37 °C and 5% CO2 in DMEM (Thermo) supplemented with 10% FBS (v/v) and penicillin-streptomycin (Thermo). Recombination cloning-compatible U2OS cells were generated using the Flp-In T-Rex Core Kit (Thermo) according to the manufacturer’s instructions and maintained under selection using Blasticidin (Invivogen) and Zeocin (Thermo). To generate cell lines stably expressing GFP-VCF1, U2OS Flp-In T-Rex cells (Thermo) were co-transfected with GFP-VCF1 constructs and pOG44 (Thermo) plasmids, followed by selection with Hygromycin (Invitrogen). Single clones were carefully screened for uniform expression of ectopic GFP-VCF1 at low levels and maintained under selection with Blasticidin and Hygromycin. To induce GFP-VCF1 expression, cells were treated with Doxycycline (DOX) (0.5 µg/ml) for 16 h. U2OS cell lines stably expressing Ub(G76V)-GFP or Ub(G76V)-GFP-20AA were described previously. A U2OS cell line stably expressing Ub(G76V)-GFP-NES was generated under G418 (Invivogen) selection. Clones with low baseline GFP expression were visually screened for low basal GFP expression. All cell lines used in this study were regularly tested negative for mycoplasma infection and were not authenticated.
Immunoblotting was performed as previously described. Immunoprecipitation (IP) of HA-tagged proteins was performed using Anti-HA Affinity matrix (Roche) under denaturing conditions, unless otherwise stated. GFP-trap and […] Fab-trap agarose (Chromotek) were used according to manufacturer’s instructions. Cell lysis was performed using RIPA buffer (140 mM NaCl; 10 mM Tris-HCl, pH 8.0; 0.1% sodium deoxycholate; 1% Triton X-100; 0.1% SDS; 1 mM EDTA; 0.5 mM EGTA) or EBC buffer (50 mM Tris, pH 7.5; 150 mM NaCl; 1 mM EDTA; 0.5% NP-40, 1 mM DTT). IPs were washed in non-denaturing buffer (50 mM Tris-HCl, pH 7.5; 150 mM NaCl; 0.5 mM EDTA). […]

[2] = tested on: GFP-VCF1 WT / N167A interactome, U2OS cells; assay: GFP IP mass spectrometry, comparison of VCF1 WT and N167A interactomes (WT/N167A); type: binding, human; conditions: GFP-VCF1 WT / N167A IPs, partially denaturing RIPA buffer
Experimental: as §1, with “All cell lines used in this study were regularly tested negative for mycoplasma infection and were not authenticated.” left out

[3] = tested on: p97 with UFD1-NPL4, p47 or FAF1; assay: In vitro binding with p97 cofactors (GST, StrepTactin, p47, p97 or FLAG pulldown); design: species or system human; conditions: high/increasing concentrations
Experimental: All in vitro binding experiments were performed in EBC or RIPA buffer as indicated. Recombinant Biotin-tagged K48-linked poly-ubiquitin chains (2−7) and K48-linked poly-ubiquitin chains (2−16) were purchased from R&D Systems and Enzo Life Science, respectively. Recombinant proteins were incubated with Strep-Tactin Sepharose (IBA), Glutathione agarose (Gold Biotechnology) or […] Fab-trap agarose (ChromoTek) overnight on an end-over-end rotator at 4 °C, washed six times with EBC or RIPA buffer, and resuspended in 2×Laemmli sample buffer. For p97, VCF1 or p47 pulldowns, antibodies (0.5 µg/sample) were coupled to agarose beads, incubated with recombinant proteins or cell lysates and washed with the indicated buffer. To assess p97-UFD1-NPL4 binding to ubiquitylated proteins in total cell extracts, U2OS cells were lysed in EBC buffer supplemented with protease and phosphatase inhibitors, sonicated and incubated on ice for 10 min. Lysates were cleared by centrifugation for 10 min at 16,100 × g. Cell lysate (40 µg) was added to recombinant proteins in EBC buffer, incubated overnight on the rotator with […] Fab-trap agarose (ChromoTek), and beads were washed six times.

p97 = conditions: reported for p47/NSFL1C; cited from earlier work
Description: Through in silico searches for candidate regulators of p97 function, we came across FAM104A, a virtually uncharacterized protein detected in unbiased large-scale proteomic profiles of p97 interaction networks along with known p97 cofactors (Supplementary Fig. 1a)[20],[21], but whose precise connection to p97 has not been studied. In humans, FAM104A encodes a relatively small protein of 186 amino acids that contains no annotated domains but is conserved across vertebrates (Supplementary Fig. 1b) and is broadly expressed, albeit at low levels, in human tissues. For reasons described in the follo ...

Molecule | Relative protein level (log2) WT/noDox [1] [log2] | further results
Isocitrate dehydrogenase [NAD] subunit gamma, mitochondrial (protein, UniProt P51553 40-393, looked up, prey protein) Isocitrate dehydrogenase …: FSEQTIPPSAKYGGRHTVTMIPGDGIGPELMLHVKSVFRHACVPVDFEEVHVSSNADEEDIRNAIMAIRRNRVALKGNIETNHNLPPSHKSRNNILRTSLDLYANVIHCKSLPGVVTRHKDIDILIVRENTEGEYSSLEHESVAGVVESLKIITKAKSLRIAEYAFKLAQESGRKKVTAVHKANIMKLGDGLFLQCCREVAARYPQITFENMIVDNTTMQLVSRPQQFDVMVMPNLYGNIVNNVCAGLVGGPGLVAGANYGHVYAVFETATRNTGKSIANKNIANPTATLLASCMMLDHLKLHSYATSIRKAVLASMDNENMHTPDIGGQGTTSEAIQDVIRHIRVINGRAVEA | 1.726 | 
U4/U6.U5 tri-snRNP-associated protein 2 (protein, UniProt Q53GS9 1-565, looked up, prey protein) Ubiquitin carboxyl-terminal …: MSGRSKRESRGSTRGKRESESRGSSGRVKRERDREREPEAASSRGSPVRVKREFEPASAREAPASVVPFVRVKREREVDEDSEPEREVRAKNGRVDSEDRRSRHCPYLDTINRSVLDFDFEKLCSISLSHINAYACLVCGKYFQGRGLKSHAYIHSVQFSHHVFLNLHTLKFYCLPDNYEIIDSSLEDITYVLKPTFTKQQIANLDKQAKLSRAYDGTTYLPGIVGLNNIKANDYANAVLQALSNVPPLRNYFLEEDNYKNIKRPPGDIMFLLVQRFGELMRKLWNPRNFKAHVSPHEMLQAVVLCSKKTFQITKQGDGVDFLSWFLNALHSALGGTKKKKKTIVTDVFQGSMRIFTKKLPHPDLPAEEKEQLLHNDEYQETMVESTFMYLTLDLPTAPLYKDEKEQLIIPQVPLFNILAKFNGITEKEYKTYKENFLKRFQLTKLPPYLIFCIKRFTKNNFFVEKNPTIVNFPITNVDLREYLSEEVQAVHKNTTYDLIANIVHDGKPSEGSYRIHVLHHGTGKWYELQDLQVTDILPQMITLSEAYIQIWKRRDNDETNQQGA | 1.44 | 
LMNA (protein, UniProt P02545 1-661, looked up) Prelamin-A/C: METPSQRRATRSGAQASSTPLSPTRITRLQEKEDLQELNDRLAVYIDRVRSLETENAGLRLRITESEEVVSREVSGIKAAYEAELGDARKTLDSVAKERARLQLELSKVREEFKELKARNTKKEGDLIAAQARLKDLEALLNSKEAALSTALSEKRTLEGELHDLRGQVAKLEAALGEAKKQLQDEMLRRVDAENRLQTMKEELDFQKNIYSEELRETKRRHETRLVEIDNGKQREFESRLADALQELRAQHEDQVEQYKKELEKTYSAKLDNARQSAERNSNLVGAAHEELQQSRIRIDSLSAQLSQLQKQLAAKEAKLRDLEDSLARERDTSRRLLAEKEREMAEMRARMQQQLDEYQELLDIKLALDMEIHAYRKLLEGEEERLRLSPSPTSQRSRGRASSHSSQTQGGGSVTKKRKLESTESRSSFSQHARTSGRVAVEEVDEEGKFVRLRNKSNEDQSMGNWQIKRQNGDDPLLTYRFPPKFTLKAGQVVTIWAAGAGATHSPPTDLVWKAQNTWGCGNSLRTALINSTGEEVAMRKLVRSVTVVEDDEDEDGDDLLHHHHGSHCSSSGDPAEYNLRSRTVLCGTCGQPADKASASGSGAQVGGPISSGSSASSVTVTRSYRSVGGSGGGSFGDNLVTRSYLLGNSSPRTQSPQNC |  | Relative protein level (log2) WT/MUT [2]: 3.361 log2
Complement component 1 Q subcomponent-binding protein, mitochondrial (protein, UniProt Q07021 74-282, looked up, prey protein) Complement component 1 Q …: LHTDGDKAFVDFLSDEIKEERKIQKHKTLPKMSGGWELELNGTEAKLVRKVAGEKITVTFNINNSIPPTFDGEEEPSQGQKVEEQEPELTSTPNFVVEVIKNDDGKKALVLDCHYPEDEVGQEDEAESDIFSIREVSFQSTGESEWKDTNYTLNTDSLDWALYDHLMDFLADRGVDNTFADELVELSTALEHQEYITFLEDLKSFVKSQ | 2.689 | 
p47: p97 cofactor (protein, left off: His6, end not stated, state not stated, p97 cofactor) MAAERQEALREFVAVTGAEEDRARFFLESAGWDLQIALASFYEDGGDEDIVTISQATPSSVSRGTAPSDNRVTSFRDLIHDQDEDEEEEEGQRFYAGGSERSGQQIVGPPRKKSPNELVDDLFKGAKEHGAVAVERVTKSPGETSKPRPFAGGGYRLGAAPEEESAYVAGEKRQHSSQDVHVVLKLWKSGFSLDNGELRSYQDPSNAQFLESIRRGEVPAELRRLAHGGQVNLDMEDHRDEDFVKPKGAFKAFTGEGQKLGSTAPQVLSTSSPAQQAENEAKASSSILIDESEPTTNIQIRLADGGRLVQKFNHSHRISDIRLFIVDARPAMAATSFILMTTFPNKELADESQTLKEANLLNAVIVQRLT |  | displacement of p97-bound cofactors [3]: did not lead to dissociation of VCF1 from p97; Kd (p97): 200 to 500 nM

Reference: publication PMC10950897, “VCF1 is a p97/VCP cofactor promoting recognition of ubiquitylated p97-UFD1-NPL4 substrates” (Nature Communications, 2024)
